The target in the assay is arrestin-3 fused to nanoluciferase (UniProt P32121). Kind of assay: arrestin-3 interaction assay (hGPR84-eYFP with arrestin-3-nanoluciferase), 2-HTP concentration-response. The conditions noted are these: value read at the highest 2-HTP concentration, Log [2-HTP] M = -4; parent: est. 100; read off a plot.
With “FLAG-human GPR84-eYFP (from UniProt Q9NQS5) pmIL3 (all 21 serine and threonine residues of the third intracellular loop converted to alanine; positions not printed legibly)”, the percent of parent is 28 % of WT.
In the case of “FLAG-human GPR84-eYFP (from UniProt Q9NQS5) pmIL3-Ct (all 21 serines/threonines of the third intracellular loop and the two serines of the C-terminal tail converted to alanine; positions not printed legibly)”, the percent of parent is 28 % of WT.
For “FLAG-human GPR84-eYFP (from UniProt Q9NQS5) pmCt (the two serine residues of the C-terminal tail converted to alanine; positions not printed legibly)”, the percent of parent was 75 % of WT.

These data come from article PMC9118924.
